In article PMC6934829, “Multi-Factor Regulation of the Master Modulator LeuO for the Cyclic-(Phe-Pro) Signaling Pathway in Vibrio vulnificus” (Scientific Reports, 2019):

How the values were obtained:
[1] = biological target: T1, ToxR-C (C-terminal periplasmic domain of ToxR) (Vibrio vulnificus, UniProt Q9RP86); test: isothermal titration calorimetry; assay type: binding
T1 construct: C-terminal His-tag (pET21a), expressed in E. coli BL21(DE3)

[2] = biological target: C-terminal periplasmic domain of ToxR (ToxR-C) (Vibrio vulnificus); test: ITC; 0.2 mM ToxR-C in the cell, 10 mM cFP or linear FP in the syringe, 2 ul injections at 2 min intervals, 25 °C, 20 mM Na2HPO4 pH 7.8, 1 mM EDTA; simple binding model

Compound	Kd [1]	Kd [2]	stoichiometry N [2]
O=C1N[C@@H](Cc2ccccc2)C(=O)N2CCC[C@@H]12 [cFP]	42 µM	–	–
cyclic-L-phenylalanine-L-proline (cFP) (peptide)	–	42 µM	1
